This series addresses T1, Ala-Ala-Tyr-Ala-Ala.
T1 chain: AAYAA

B1: trigger factor (TF) (protein)
chain: MQVSVETTQGLGRRVTITIAADSIETAVKSELVNVAKKVRIDGFRKGKVPMNIVAQRYGASVRQDVLGDLMSRNFIDAIIKEKINPAGAPTYVPGEYKLGEDFTYSVEFEVYPEVELQGLEAIEVEKPIVEVTDADVDGMLDTLRKQQATWKEKDGAVEAEDRVTIDFTGSVDGEEFEGGKASDFVLAMGQGRMIPGFEDGIKGHKAGEEFTIDVTFPEEYHAENLKGKAAKFAINLKKVEERELPELTAEFIKRFGVEDGSVEGLRAEVRKNMERELKSAIRNRVKSQAIEGLVKANDIDVPAALIDSEIDVLRRQAAQRFGGNEKQALELPRELFEEQAKRRVVVGLLLGEVIRTNELKADEERVKGLIEEMASAYEDPKEVIEFYSKNKELMDNMRNVALEEQAVEAVLAKAKVTEKETTFNELMNQQA
Regarding B1, the relative intensity of the cross signal of the Ala-Tyr peptide bond (no addition: 3.50 ± 0.51) (relative intensity) turned out to be 3.83 and the relative intensity of the cross signal of the Tyr-Ala peptide bond (no addition: 3.89 ± 0.32) (relative intensity) is 4.42.

B2: Parvulin (protein)
chain: AKTAAALHILVKEEKLALDLLEQIKNGADFGKLAKKHSICPSGKRGGDLGEFRQGQMVPAFDKVVFSCPVLEPTGPLHTQFGYHIIKVLYRN
With B2, the relative intensity of the cross signal of the Ala-Tyr peptide bond (no addition: 3.50 ± 0.51) (relative intensity) is 2.9 and the relative intensity of the cross signal of the Tyr-Ala peptide bond (no addition: 3.89 ± 0.32) (relative intensity) came out at 3.11.

B3: fragment of the trigger factor (protein)
chain: RKQQATWKEKDGAVEAEDRVTIDFTGSVDGEEFEGGKASDFVLAMGQGRMIPGFEDGIKGHKAGEEFTIDVTFPEEYHAENLKGKAAKFAINLKKVEERELPELTAE
Protein B3 displayed a relative intensity of the cross signal of the Ala-Tyr peptide bond (no addition: 3.50 ± 0.51) (relative intensity) of 3.96 and a relative intensity of the cross signal of the Tyr-Ala peptide bond (no addition: 3.89 ± 0.32) (relative intensity) of 3.22.
